Results: paper PMC7854179 (Molecules and Cells, 2021)

B1: human PTPN21 PTP domain (residues 873-1174), PTP_(PTPN21) (domain or fragment)
chain: EVATRATNDERCKILEQRLEQGMVFTEYERILKKRLVDGECSTARLPENAERNRFQDVLPYDDVRVELVPTKENNTGYINASHIKVSVSGIEWDYIATQGPLQNTCQDFWQMVWEQGIAIIAMVTAEEEGGREKSFRYWPRLGSRHNTVTYGRFKITTRFRTDSGCYATTGLKMKHLLTGQERTVWHLQYTDWPEHGCPEDLKGFLSYLEEIQSVRRHTNSTSDPQSPNPPLLVHCSAGVGRTGVVILSEIMIACLEHNEVLDIPRVLDMLRQQRMMLVQTLCQYTFVYRVLIQFLKSSRLI
B2: HPV1a E7 CR3 (residues 39-93) (domain or fragment)
chain: LVSPQQPYAVVASCAYCEKLVRLTVLADHSAIRQLEELLLRSLNIVCPLCTLQRQ
B3: HPV11 E7 CR3 (residues 45-98) (domain or fragment)
chain: AQPLTQHYQILTCCCGCDSNVRLVVECTDGDIRQLQDLLLGTLNIVCPICAPKP
B4: HPV16 E7 CR3 (residues 45-98) (domain or fragment)
chain: AEPDRAHYNIVTFCCKCDSTLRLCVQSTHVDIRTLEDLLMGTLGIVCPICSQKP
B5: HPV18 E7 conserved region 3 (residues 54-105), CR3_(18E7) (domain or fragment)
chain: AEPQRHTMLCMCCKCEARIKLVVESSADDLRAFQQLFLNTLSFVCPWCASQQ

Experiments:
[1] = molecular target: B5; assay: SAXS
[2] = molecular target: B5; assay: SEC-MALS
[3] = molecular target: B2; assay: SEC-MALS
[4] = molecular target: B4; assay: SEC-MALS
[5] = molecular target: B3; assay: SEC-MALS
SEC-MALS = molecular target: the molecule itself; assay: SEC-MALS
[6] = molecular target: B1; assay: ITC
[7] = molecular target: T1, human PTPN14 PTP domain (residues 886-1187), PTP_(PTPN14) (human, UniProt Q15678 886-1187); assay: SAXS
T1 sequence: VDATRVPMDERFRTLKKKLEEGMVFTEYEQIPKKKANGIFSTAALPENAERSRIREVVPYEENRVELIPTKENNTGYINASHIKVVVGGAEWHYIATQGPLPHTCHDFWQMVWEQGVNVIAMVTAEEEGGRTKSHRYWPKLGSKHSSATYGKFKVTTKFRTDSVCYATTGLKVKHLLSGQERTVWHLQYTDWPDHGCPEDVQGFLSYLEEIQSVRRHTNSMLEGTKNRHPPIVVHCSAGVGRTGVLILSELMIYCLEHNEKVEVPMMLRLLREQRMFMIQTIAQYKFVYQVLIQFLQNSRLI

B1
stoichiometry N [1]: 1 PTP_(PTPN21) per CR3_(18E7) chain (2:2) | stoichiometry N [2]: 1 PTP_(PTPN21) per E7 CR3 chain (2:2) | stoichiometry N [3]: 1 PTP_(PTPN21) per E7 CR3 chain (2:2) | stoichiometry N [4]: 1 PTP_(PTPN21) per E7 CR3 chain (2:2) | stoichiometry N [5]: 1 PTP_(PTPN21) per E7 CR3 chain (2:2)

B2
stoichiometry N (SEC-MALS): 2

B3
stoichiometry N (SEC-MALS): 2

B4
stoichiometry N (SEC-MALS): 2

B5
Kd [6]: 5.43 nM | binding result [7]: binds | stoichiometry N (SEC-MALS): 2
